# Experimental data published in the DeepSol protein solubility set.
# Test: soluble on expression in E. coli; label from the status in PepcDB or PDB records
row,Sequence,soluble on expression in E. coli
1,YRFSDFEMGLLQTHAEMAERMVNEIGGEHLEIRVLAEITELLQERNEELSPFLTRVLSMATELIGADTGSIAIVQERDGEKWLVVEDEEGTIVGAKNKSWLKKYIPPFRIGGHELPAEERSLTGYVAWSKQPKIIAHVADEQGGEGFHRSMHELIKSEIAVPIVCDDEVIAVVCLNSLKPAWFTEEHKRILQIIDRLTSRHISDVQRIERLEGEVTRLKTDVAYKDPQISSYR,not soluble
2,MWEVIIMKTYIGKIHLKWCKNCNVPLLGRVCEVCGSKAEEVKLTPPGDPRLGFQYDMDFINKILEEEFGAKNVLNGKIILLNKIPGNEEAYEIIVDGEVKYLIYFDEDKEKWKVKLKLNGAKDLMEKGAYKKIIKIKNDVVEFLKNRKGSVLRPGIVEFTDDIEEKDDVIIVDENDRVVGVGLAVVSSEDIKNMEKGKVVKVRFFIKDNEDYKPGKIYDNLEEAFDLMVRANEGVIDNYERNAIGFIKNTYEKIKKPVMVAFSGGKDSLVTLILTLKALGKDIDVVFIDTGLEFEETLKNVEDVERHYGIKIIRLRGENFWEKVKEYGIPARDYRWCSEICKLEPLKKFIEENYEDDVLSFVGIRKYESFNRATKKRIHRNTYIKKQINALPIFHWSSLHVWIYLLREKAPYNKLYEKGFDRIGCFMCPAMEMGEMNKIKREFPKLWEKWENVLREYAEKHNLGEGWIKKGLWRWKHKRQ,soluble
3,MSLNFTALDFETANTHKTSICAVGMAIVEDGKVVKTISKLIKPVPDFYSYWNVQIHGITPDMTADAPYFIDVWQELKQYIDYSTLVAHNAAFDVGALRSILTTHEVSFPKTDYFCSCSVSRKVFKEIENHKLSTVCRHIDVPLNHHEAESDAIGAAQIIIKAGERLGANSIEELMAMLKMKLKVEGHHHHHH,not soluble
4,MSLTQFASPVLHSLLDTDAYKLHMQQAVFHHYYDVHVAAEFRCRGDDLLGIYADAIREQVQAMQHLRLQDDEYQWLSALPFFKADYLNWLREFRFNPEQVTVSNDNGKLDIRLSGPWREVILWEVPLLAVISEMVHRYRSPQADVAQALDTLESKLVDFSALTAGLDMSRFHLMDFGTRRRFSREVQETIVKRLQQESWFVGTSNYDLARRLSLTPMGTQAHEWFQAHQQISPDLANSQRAALAAWLEEYPDQLGIALTDCITMDAFLRDFGVEFASRYQGLRHDSGDPVEWGEKAIAHYEKLEIDPQSKTLVFSDNLDLRKAVELYRHFSSRVQLSFGIGTRLTCDIPQVKPLNIVIKLVECNGKPVAKLSDSPGKTICHDKAFVRALRKAFDLPHIKKASEGHHHHHH,soluble
5,MDVEVKNKANRRHVGHNLQKIRVYFGMKQEALAADLGVNQQVISKIEKQEEIEEGLLNQIASVLGISAEVIKDFDVEKAIYNINNIRDNTFEQGATSIAQQFNPLDKIVELYERLLQSEREKIELLKKR,not soluble
6,MGSDKIHHHHHHMTEEVPSMDTAPSVGDVREYWNRNPLLSHELASPGSPAFFASLDTAKREDSDRFAMDYWEFGQWAGQRVLDIGCGPGWLTVQYARGGAQVDSVDLTPRAVELAQAHLALHGQSATVREGNAEELPFPDDQFDLVAASGVLHHTPDTQATFREAFRVTKPGGQGKITLYRKGILHHPAVFAMTRIAMRLFGVKHPGADLGKNSSDVDDFIRRYDGDGNPVGIGKTDADWAADLAAAGWVVQGHEVHFFPRRFLPCARLIPVWLHEFLDTRLGTMVYFRLRKPIISGK,not soluble
7,GSTAAEKPKLHYFNARGRMESTRWLLAAAGVEFEEKFIKSAEDLDKLRNDGYLMFQQVPMVEIDGMKLVQTRAILNYIASKYNLYGKDIKERALIDMYIEGIADLGEMILLLPVCPPEEKDAKLALIKEKIKNRYFPAFEKVLKSHGQDYLVGNKLSRADIHLVELLYYVEELDSSLISSFPLLKALKTRISNLPTVKKFLQPGSPRKPPMDEKSLEEHRKIFRF,soluble
8,MGSDKIHHHHHHMSGFSPELIDYLEGKISFEEFERRREERKTREKKSLQEKGKLSAEENPDDSEVPSSSGINSTKSQDKDVSEGETSDGVRKSVHKVFASMLGENEDDEEEEEEEEEEEEEEETPEQPTAGDVFVLEMVLNRETKKMMKEKRPRSKLPRALRGLMGEANIRFARGEREEAILMCMEIIRQAPLAYEPFSTLAMIYEDQGDMEKSLQFELIAAHLNPSDTEEWVRLAEMSLEQDNIKQAIFCYTKALKYEPTNVRYLWERSSLYEQMGDHKMAMDGYRRILNLLSPSDGERFMQLARDMAKSYYEANDVTSAINIIDEAFSKHQGLVSMEDVNIAAELYISNKQYDKALEIITDFSGIVLEKKTSEEGTSEENKAPENVTCTIPDGVPIDITVKLMVCLVHLNILEPLNPLLTTLVEQNPEDMGDLYLDVAEAFLDVGEYNSALPLLSALVCSERYNLAVVWLRHAECLKALGYMERAAESYGKVVDLAPLHLDARISLSTLQQQLGQPEKALEALEPMYDPDTLAQDANAAQQELKLLLHRSTLLFSQGKMYGYVDTLLTMLAMLLKVAMNRAQVCLISSSKSGERHLYLIKVSRDKISDSNDQESANCDAKAIFAVLTSVLTKDDWWNLLLKAIYSLCDLSRFQEAELLVDSSLEYYSFYDDRQKRKELEYFGLSAAILDKNFRKAYNYIRIMVMENVNKPQLWNIFNQVTMHSQDVRHHRFCLRLMLKNPENHALCVLNGHNAFVSGSFKHALGQYVQAFRTHPDEPLYSFCIGLTFIHMASQKYVLRRHALIVQGFSFLNRYLSLRGPCQESFYNLGRGLHQLGLIHLAIHYYQKALELPPLVVEGIELDQLDLRRDIAYNLSLIYQSSGNTGMAQTLLYTYCSI,not soluble
9,MEVDPGSDDVEADRETRAQKLKLKRNVKFRAQMRRFDEYCGVTNLTVDDLNWPLISGIPLQRQRLTGATYYDDSLLDQNPWDEFSIDRFLEITSIQLITAGAGYERNDEITRFVFQRTMKTIVTYCNFMYDLARRNGKVQITRFELQDLIHRDEFRFYMYFRQFLPNPDPNCTAFSNHYTSLLHTLYFNIPGMPQFWNNSQMYNYAATRGQRLVQNIAAFYPPEYFWNEDESKYHTTFVVPRGTEFSKFYARRFHEALGMPPLENEIITVLDWLAKLCILEIVYHTTIWCDITGFGGLPRIEHYRLAMENVEDIIFDLAIDDFSISRLQLQISPFEISRYSPLDVSGYYETIKRKKDIEEYQNRFYEVHYSDDVRIMNVYATDCSRKR,not soluble
10,MLHITLHQLKIFESVARLLNFTHAAEELHLTQPAVSIQIKRLEEMVALPLFEQIGKRVHLTEAGKELFHYSRGITRQLADMELALDELKGLERGKLSISVVSTANYFVPNLLAKFCQRYPGITISLHVSNRENVLKQLSDNIMDLAIMGQPPEGLDITSESFMENPLVIIAPPEHPLCGQKQIPVKRLEQEIFLVREPGSGTRNAMERFFAHEKISIQKGMEADTAEAIKQAIQAGMGLGIMSLHTIRLELEAGRLKILDIQGLPIMRYWNVVHQKNKRLSNISSVFKQFLLNEAADLVALEYPHRNTT,not soluble
11,MGSSHHHHHHGGTGENLYFQGGSGSFRYTNHLVATLKHRLFLEAAHRQLVRQTFTGVCNGIEVTCTAYGSVVGIRMLDRAVWEPHYQVAADNKSEAAAATPTAPAAASPSRPSSSSSSSSTASGKTGIDLVKLSASIQAATWQAIQKVRAAKEETHSRSLRRNPQVLAEARLRDWYEQDANTLHPRPFDGLKNLEATEWMQAVRFGVPQPARYRRPNAAPKDLGEGGDGAHTDQKPRETITVLRDEDCDPANIPIGSVHPLFAPGLLQLEVDPNVATNGGSRVDEFFVLSEQRKEMRRDEEAFWERVELIRRSQLATIPKGGVKRGYADMADTVQDSIEEKVQLRFTQ,soluble
12,MGSDKIHHHHHHMKKGIQLVALLLTVVMSSCTGGKDKAAVKQEDEKPRVKVADVTARPVDQIQDYTATVEAEVKNNIAPSSPVRIDRILVEVGDRVSKGQKLVQMDAANLTQTKLQLDNQKIEFNRIDELYKVGGASKSEWDAAKMQLDVKQTAYDNLVENTFLLSPINGVITARNYDNGDMYSGGSPVLVVEQITPVKLMINVSETYFTKVKKGEPVDVKLDVYGDELFKGTISLIYPTIDATTRTFQIEIKLDNKDQRVRPGMFARATLNFGTADNVVVPDLAIVKQAGSGDRYVYVYKDGKVSYNKVELGRRMGSEYELKSGVPDNSQVVVAGQARLINGTEVEIEK,not soluble
13,MSIRIDRQRCIGCGKCAEICPGNLIVIDEDKKAFVRDPRDCWGCAACVKECKFSAIRYFLGAEIGGNGTTMYVEKENDEIMYWYFEKPSGEKEMIVQNLKDNTTYLEHHHHHH,not soluble
14,ESSRSAMMYIQELRSGLRDMHLLSCLESLRVSLNNNPVSWVQTFGAEGLASLLDILKRLHDEKEETSGNYDSRNQHEIIRCLKAFMNNKFGIKTMLETEEGILLLVRAMDPAVPNMMIDAAKLLSALCILPQPEDMNERVLEAMTERAEMDEVERFQPLLDGLKSGTSIALKVGCLQLINALITPAEELDFRVHIRSELMRLGLHQVLQELREIENEDMKVQLCVFDEQGDEDFFDLKGRLDDIRMEMDDFGEVFQIILNTVKDSKAEPHFLSILQHLLLVRNDYEARPQYYKLIEECVSQIVLHKNGTDPDFKCRHLQIDIERLVDQMIDKTKVEKSEAKATELEKKLDSELTARHELQVEMKKMENDFEQKLQDLQGEKDALDS,soluble
15,MRNLSDRAKFESMINSPSKSVFVRNLNELEALAVRLGKSYRIQLDQAKEKWKVK,not soluble
16,MICPRCADAHIELMATSPVKGVWTVYQCQHCLYTWRDTEPLRRTSREHYPQAFRMTQKDIDDAPMVPSIPPLLAEDKR,not soluble
17,MSLTLKLLAEVAGEKVSRFDNKGDIWYDLISAVHKSIRGSNPDAALYWSARMIAAGCDPLYIARRLLAIASEDVGNADPRAMQVALSAWDCFTRVGPAEGERAIAQAIVYLACAPKSNAVYTAWKQALSDAHNLPEFEVPFHLRNAPTGLMKDLGYGEGYRYAHDEPGAYAAGEQYLPAEIDDRKYYQPTNRGLESKIAEKLDYLANLDANSPQKRYEEGHHHHHH,not soluble
18,GFIELHAHLAFQKVPADIVLRHGVTTLRDVGGPVHPPYGGEGSLRVLTSGRIITAPHGYPIVTMGARDLAIPVASEAEAREAVRHLVGEGAVIIKIALEPGSEAGAPWSSHHDHAHHDAAHTASAVTHHHAHAASHDQSAWPMLPEPIVKAVVDEAHRHQRKVSAHVAEPSGVQVALNAGVDEWAHMPCNPIPEPLLKQARAQNVTIIGTLDTLSKCSGIAHNTMVWTELGGELLYGTEIAHPDIPWGIDAQELMYLMHLGKMKLLDALGAATAKAGRYLGIPMLGTIQPGAPADLIAIRGNPEQQLKRLEYPDLVISGGHIVVNHFSSLP,not soluble
19,MDLSVTHMDDLKTVMEDWKNELLVYKFALDALDTKFSIISQEYNLIHGHNPIEHTKSRVKSFESIVNKLMRKGCEITTKEMKEHIHDIAGVRIICSFISDIYNVVNVLKQHEDLRIVKVKDYIQTPKPNGYRSLHLIIEMPVNLTNRVEYVKAEIQIRTIAMDFWASLEHKIYYKLNNDVPKQLTDELKEAAEIAHYLDEKMLGIKKEVD,not soluble
